In US20060281899A1, “Mutants of biotin binding protein” (priority 2002, published 2006):
Residue numbers refer to the chain shown, from its start. Names and notes keep the numbering of the source. Values joined by “and” are separate entries in the source; they are usually repeats but may differ in a detail not shown here. Identical values can stand only once.

B1: AVR1: Recombinant chicken avidin-related protein 1, produced in Sf9 insect cells (protein, UniProt O13153 25-150, looked up)
Avidin-related protein 1: ARKCSLTGKWDNDLGSIMTIGAVNDNGEFNGTYITAVADNPGNITRSPLLGIQHKRACQPTFGFTVHWNFSESTSVFVGQCFVDKSGKEVLKTKWLQRLAVDDISDDWKATRVGNNDFTRQRTVEE
B2: AVR7: Recombinant chicken avidin-related protein 7, produced in Sf9 insect cells (protein, UniProt P56736 25-150, looked up)
Avidin-related protein 7: B1 Avidin-related protein 1 with K9E, D13N, I17N, T45K, R46L, V83I, K85R, N115Y, D117N
B3: AVR2: Recombinant chicken avidin-related protein 2, produced in Sf9 insect cells (protein, UniProt P56732 25-150, looked up)
Avidin-related protein 2: B1 Avidin-related protein 1 with K9E, N30D, R46L, C58S, K85R, K109I, R122H
B4: AVR6: Recombinant chicken avidin-related protein 6, produced in Sf9 insect cells (protein, UniProt P56735 25-150, looked up)
Avidin-related protein 6: B1 Avidin-related protein 1 with K9E, D13N, T45K, R46L, K85R, N115Y, D117N
B5: AVR4/5(N43E): AVR4/5 mutant, residue 43 changed to glutamate to avoid glycosylation (protein, UniProt P56734 25-150, looked up, variant N43E)
Avidin-related protein 4/5: ARKCSLTGKWTNNLGSIMTIRAVNSRGEFTGTYLTAVADNPGEITLSPLLGIQHKRASQPTFGFTVHWNFSESTTVFTGQCFIDRNGKEVLKTMWLLRSSVNDISYDWKATRVGYNNFTRLCTVEE
B6: AVR4/5 + 2-mercaptoethanol: AVR4/5 analyzed in the presence of 2-mercaptoethanol (0.4% v/v) (protein, UniProt P56734 25-150, looked up)
Avidin-related protein 4/5: B5 Avidin-related protein 4/5 with E43N
modifications: with 2-mercaptoethanol
B7: AVR3: Recombinant chicken avidin-related protein 3, produced in Sf9 insect cells (protein, UniProt P56733 25-150, looked up)
Avidin-related protein 3: ARKCSLTGKWTNNLGSIMTIRAVNSRGEFAGTYLTAVADNPGNIKLSPLLGIQHKRACQPTFGFTVHWNFSESTSVFVGQCFIDRSGKEVLKTKWLQRLAVDDISDDWKATRVGYNNFTRQRTVEE

Assays:
Isoelectric focusing = type: physicochemical
Experimental: (§1) The heat stability of the AVRs was studied by using an SDS-PAGE-based method (Bayer, E. A., Ehrlich-Rogozinski, S. and Wilchek, M. (1996) Electrophoresis 17, 1319-1324). In this method, each protein sample was divided into two fractions one of which was kept biotin-free and the other was supplemented with an excess of biotin. The samples were then mixed with denaturing SDS-PAGE sample buffer (containing β-mercaptoethanol) and incubated at a given temperature for 20 minutes. After heat treatment, the samples were subjected to SDS-PAGE and visualised by staining with Coomassie brilliant blue. The relative proportions of tetrameric and monomeric forms of the AVR proteins (with avidin as the control) were detected. A similar assay, with β-mercaptoethanol omitted from the sample buffer, was performed to examine the presence of intersubunit disulfide-bridges. Sensitivity to proteinase K was studied both in the absence and in the presence of biotin as described (Laitinen, O. H., Airenne, K. J., Marttila, A. T., Kulik, T., Porkka, E., Bayer, E. A., Wilchek, M. and Kulomaa, M. S. (1999) FEBS Lett. 461, 52-8). The isoelectric point of each AVR was determined by isoelectric focusing as previously reported (Marttila, A. T., Airenne, K. J., Laitinen, O. H., Kulik, T., Bayer, E. A., Wilchek, M. and Kulomaa, M. S. (1998) FEBS Lett. 441, 313-317). The glycosylation patterns of the AVR proteins were studied by treating the proteins with Endo Hf and PNGase F glycosidase according to the manufacturer's instructions (New England Biolabs, Mass., USA).

[1] = IASyS optical biosensor, AVR binding in a biotin cuvette; conditions: for kass / kdiss: biotin cuvette (as for Kd of these proteins); for Kd: biotin cuvette, 20.0° C.
Experimental: The biotin-binding characteristics of the AVR proteins were studied as previously described using the IASyS optical biosensor (Marttila, A. T., Airenne, K. J., Laitinen, O. H., Kulik, T., Bayer, E. A ., Wilchek, M. and Kulomaa, M. S. (1998) FEBS Lett. 441, 313-317; Laitinen, O. H., Airenne, K. J., Marttila, A. T., Kulik, T., Porkka, E., Bayer, E. A., Wilchek, M. and Kulomaa, M. S. (1999) FEBS Lett. 461, 52-8). Affinities were measured for 2-iminobiotin or biotin at 20.0° C. using a stirring power of 100%. Briefly, the protein under study in biotin-free buffer was allowed to bind to the biotin-coated surface of the IASyS cuvette. As a negative control, the protein under study was saturated with excess biotin prior to (and was also maintained under biotin excess upon) addition to the cuvette. Under these conditions, residual binding to the biotin surface of the cuvette could be regarded as unspecific, and was used as a measure of baseline variation. Binding equilibrium in the experimental cuvette was considered to be attained after no binding was detected as compared to negative control.
The actual dissociation constants (Kd) were calculated for the AVRs according to the kass and kdiss rates measured in a separate assay in different protein concentrations (varying between 10 μM and 100 pM) (Table 4 and FIG. 6). The binding seemed to follow two-order or even more complex kinetics. However, the first 1000 seconds of the binding fitted considerably well to the bi-phasic curve. All measured dissociation rate constants (kdiss) followed the first-order kinetics. Because of the extremely high binding, affinities of the AVRs for biotin could not be determined except for AVR1, AVR2 and AVR7. Binding to 2-iminobiotin was determined only for AVR4/5, and it was similar to that of avidin. The lack of binding for the other AVRs was surprising, since most of them were purified using 2-iminobiotin agarose.

[2] = IASyS reversibility of biotin binding of avidin and AVRs; conditions: biotin cuvette, after addition of free biotin (0.17 mg/ml)
Experimental: The reversibility of biotin binding was studied as follows: Avidin and the AVRs were allowed to bind to a biotin-coated cuvette. After measuring the initial binding (A) as described above, biotin-saturated (0.17 mg/ml) buffer was injected into the cuvette and the amount of proteins remaining bound was measured until no dissociation was seen, again as compared to the negative control cuvette (B). The measurement time was at least 20 minutes. The percent reversibility was calculated as follows: reversibility (%)=100*(A−B)/A. A−B is the amount of liberated proteins after biotin adding.

[3] = Non-reducing SDS-PAGE thermostability, oligomeric forms after boiling; type: physicochemical; conditions: boiled 20 minutes
Experimental: as §1

[4] = Differential scanning calorimetry of avidin and AVR4/5 forms; type: physicochemical; conditions: for DSC Tm(−biotin): 50 mM sodium phosphate pH 7.0, 100 mM NaCl
Experimental: The thermodynamics of the heat-induced unfolding of the proteins were studied using DSC. The transition midpoint of heat-induced denaturation (Tm) of the avidin and different AVR4/5 forms was studied using a Nano II differential scanning calorimeter (Calorimetric Sciences Corporation, Provo, Utah, USA). The reference cell was filled with buffer whereas the sample cell was filled with proteins dissolved in 50 mM sodium phosphate buffer, pH 7.0 containing 100 mM NaCl. Avidin and AVR4/5(C124S) were also analyzed in 50 mM Na-acetate pH 4.0 containing 100 mM NaCl. Furthermore, AVR4/5 was analyzed in the presence of 2-mercaptoethanol (0.4% v/v). The samples (1.6-9.6 μM) were analyzed both in the absence and presence of a three fold molar excess of biotin/subunit. All samples were degassed before being loaded into the DSC. The thermograms were recorded as a function of temperature; between 25 and 130° C. at a rate of 55.6° C./h (Gonzalez, M., Argarana, C. E. & Fidelio, G. D. (1999) Biomol. Eng. 16, 67-72; Nordlund, H. R., Laitinen, O. H., Uotila, S. T., Nyholm, T., Hytönen, V. P., Slotte, J. P. & Kulomaa, M. S. (2003) J. Biol. Chem. 278, 2479-2483). Data was analyzed using Microcal Origin 6.0 and Cpcalc 2.1 (Applied Thermodynamics, Hunt Valley, Md.). The change in heat capacity upon unfolding (ΔCp) was measured for avidin and AVR4/5(C124S) using DSC data from measurements in pH 4.0 and 7.0. ΔCp was then obtained from the slope of ΔH vs. Tm (Liu, Y. & Sturtevant, J. M. (1996) Biochemistry 35, 3059-3062).

[5] = IAsys optical biosensor, AVR4/5 forms binding to 2-iminobiotin surface; conditions: for Kd: 20° C.
Experimental: The biotin-binding characteristics of the different avidins were studied using an IAsys optical biosensor at 20° C. The reversibility of binding and binding affinities to the 2-iminobiotin surface in 50 mM borate buffer (pH 9.5, 1 M NaCl) were measured as previously reported (Laitinen, O. H., Hytönen, V. P., Ahlroth, M. K., Pentikäinen, O. T., Gallagher, C., Nordlund, H. R., Ovod, V., Marttila, A. T., Porkka, E., Heino, S., Johnson, M. S., Airenne, K. J. & Kulomaa, M. S. (2002) Biochem. J. 363, 609-617).
Briefly, The 2-iminobiotin ligand was immobilized onto the carboxymethyldextran surface of a cuvette using N-hydroxysuccinimide activation. Binding of various concentrations of avidin or avidin mutants onto 2-iminobiotinylated surface were measured in a 50 mM borate buffer (pH 9.5) containing 1 M NaCl at 20° C. The iminobiotin cuvettes were regenerated with 20 mM HCl. The kinetic rate constants for association (kass) and dissociation (kdiss) were calculated using the Fast Fit program package (Affinity Sensors). The obtained rate constants were used to calculate Kd(rel) according to Kd=kdiss/kass. Equilibrium data obtained from measurements with different protein concentrations were used to calculate the dissociation constant Kd(eq).

[6] = IAsys reversibility of binding to biotin, AVR4/5 forms; conditions: biotin cuvette
Experimental: The biotin-binding characteristics of the different avidins were studied using an IAsys optical biosensor at 20° C. […] H., Hytönen, V. P., Ahlroth, M. K., Pentikäinen, O. T., Gallagher, C., Nordlund, H. R., Ovod, V., Marttila, A. T., Porkka, E., Heino, S., Johnson, M. S., Airenne, K. J. & Kulomaa, M. S. (2002) Biochem. J. 363, 609-617).

[7] = read-out: Kd calculated directly from the binding curves
[8] = read-out: Kd calculated from the equilibrium response data

| Molecule | pI by isoelectric focusing (Isoelectric focusing) | kass [1] | Kd [1, 8] [nM] | Reversibility of biotin binding [2] | Dimeric form, relative proportion [3] [percentage] | Monomeric form, relative proportion [3] [percentage] | further results |
| --- | --- | --- | --- | --- | --- | --- | --- |
| B1 | ≈ 7 | (5.5 ± 1.5) × 10^4 M^−1 s^−1 | 100 | 18% and 18 ± 10% | 40 | 40 | kdiss [1]: (2.4 ± 0.8) × 10^−3 s^−1; Kd [1, 7]: 44 nM; Tetrameric form, relative proportion [3]: 20 percentage |
| B2 | ≈ 7 | (1.8 ± 0.2) × 10^5 M^−1 s^−1 | 4.5 | 3 ± 3% | 20 | 80 | – |
| B3 | ≈ 5 | (1.8 ± 0.1) × 10^4 M^−1 s^−1 | 1700 | 94 ± 3% | – | 100 | kdiss [1]: (4.6 ± 1.1) × 10^−3 s^−1; Kd [1, 7]: 52 nM |
| B4 | ≈ 7 | – | < 10 | 5 ± 3% | 50 | 50 | – |
| B5 | – | – | – | – | – | – | DSC Tm(−biotin) [4]: 104.9 ± 0.3 °C; kass [5]: (1.3 ± 0.3) × 10^4 M^−1s^−1; kdiss [5]: (1.8 ± 0.8) × 10^−3 s^−1; Kd ([5]; 50 mM borate pH 9.5, 1 M NaCl, read-out: Kd detected from the equilibrium response data): 110 nM; Kd ([5]; pH 9.5, 1 M NaCl, read-out: Kd detected directly from the binding curves): 140 nM; Reversibility of binding to biotin [6]: 3 ± 2% |
| B6 | – | – | – | – | – | – | DSC Tm(−biotin) [4]: 106.5 ± 0.3 °C; ΔTm ([4]; change in Tm upon addition of a three-fold molar excess of biotin): 18.7 °C; ΔH of unfolding ([4]; sample without biotin): 169 ± 6.21 kcal/mol; DSC Tm (+biotin) ([4]; three-fold molar excess of biotin, pH 7.0): 125.2 ± 0.1 °C |
| B7 | ≈ 10 | – | < 10 | 3 ± 2% | 50 | 50 | – |
